± gives the uncertainty stated by the source.
Test: amyloid nucleation score (Sup35N fusion, yeast selection) (log enrichment); library NNK3; higher = more nucleation; inactive = no reads after selection
Summary of the method: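 Sup35N fusions to peptides of 20 random codons were expressed in psi-negative yeast, induced 24 hours with 100 μM copper sulfate, and grown 7 days at 30°C on medium lacking adenine and uracil. Input and output plasmid inserts were sequenced by Illumina. The nucleation score is the DiMSum log enrichment of output over input reads, centred on the mode score of non-aggregating sequences. Sequences with under 100 input reads were excluded.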
In the case of VTFTHKEHGRPNTRSFTKYL, the amyloid nucleation score is reported as “inactive”.
For MDFCRRQIMLVVAFSCRLWL, the amyloid nucleation score was “inactive”.
For KFARV, the amyloid nucleation score was “inactive”.
In the case of SAYYYGKY, the amyloid nucleation score is reported as “inactive”.
In the case of RCWNKVFLSYQTELI, the amyloid nucleation score is reported as “inactive”.
With VDEADVRKHMT the amyloid nucleation score was “inactive”.
In the case of VMFMIAGNC, the amyloid nucleation score is reported as “inactive”.
In the case of EDCRSR, the amyloid nucleation score is reported as “inactive”.
For TLHIF, the amyloid nucleation score was “inactive”.
For WMCIEGIANLESAFNRRFST, the amyloid nucleation score was “inactive”.
In the case of RNISDMEPS, the amyloid nucleation score is reported as “inactive”.
For LTGFIGICQLVSYFNEVALQ, the amyloid nucleation score was “inactive”.
With YCGWLCSSPPVQNV the amyloid nucleation score was “inactive”.
VFSVHVWQCSNLFQRMLCNF gave an amyloid nucleation score of 1.06 ± 0.14.
For SFFNFRMD, the amyloid nucleation score was “inactive”.
Work on SYTFVCRPTFYVCFCGSMCF yielded an amyloid nucleation score of 2.45 ± 0.065.
With RVNHGGNLTRAKHERLFHLK the amyloid nucleation score was “inactive”.
With RPFKFMKLFHIMCVVDVYCM the amyloid nucleation score was “inactive”.
With VPISHLFSLVLVRPRMTSRY the amyloid nucleation score was “inactive”.
With LPLPFFQRVNNGKSVLGVHL the amyloid nucleation score was “inactive”.
In the case of TYPVGPGGFFWDLGCV, the amyloid nucleation score is reported as “inactive”.
For YFSWLSLHVFVSGFVRIVCR, the amyloid nucleation score was “inactive”.
With ISSAYPRNICRVCGPRTR the amyloid nucleation score was “inactive”.
MYLITGAFLCIHQHG showed an amyloid nucleation score of 1.71 ± 0.075.
With RYSVARIRCTTGNVDVYV the amyloid nucleation score was -0.281 ± 1.2.
For LLVGEIGYLEHTMHNCEVEG, the amyloid nucleation score was “inactive”.
With DLFKCGRGHVIFVLSRLLIS the amyloid nucleation score was -0.459 ± 1.1.
For LSGMMFAGPFLTCSLDCWML, the amyloid nucleation score was “inactive”.
With LHYICQKLGGMWMVLVCRAC the amyloid nucleation score was “inactive”.
IQQGKVYKGTLLLTAYMTSE gave an amyloid nucleation score of 1.11 ± 0.096.
In the case of VCSSGQKSLKMLRIFHIFNP, the amyloid nucleation score is reported as -0.352 ± 0.87.
In the case of NMGTGGRLEGPVDSGHSEKF, the amyloid nucleation score is reported as “inactive”.
In the case of VTSAPNKCFNLFYVNWDHNN, the amyloid nucleation score is reported as 0.784 ± 0.17.
In the case of VFVLCSSLYEGFTYYRWISF, the amyloid nucleation score is reported as “inactive”.
In the case of LRMSTSGIPYYMSGMSYYNI, the amyloid nucleation score is reported as “inactive”.
Work on FNYMCNLNVCRNIILMTLEL yielded an amyloid nucleation score of 2.69 ± 0.07.
With SYLIGIWGFWINGIVFAVCA the amyloid nucleation score was “inactive”.
With FLVICCCWD the amyloid nucleation score was 2.08 ± 0.062.
For SVIYVLYKVW, the amyloid nucleation score was “inactive”.
Substance GKFFMVSRYCESSSLRFESM has an amyloid nucleation score of 1.15 ± 0.17.
For YVLSATG, the amyloid nucleation score was “inactive”.
In the case of SVYPYESYLVW, the amyloid nucleation score is reported as “inactive”.
Substance KFGFCDIMKGLFRRMLGLKV has an amyloid nucleation score of -1.06 ± 1.3.
For DYISPYCS, the amyloid nucleation score was “inactive”.
For GNIDCSTVFVSRNNCD, the amyloid nucleation score was “inactive”.
With DGVALFNVVRFVVGIDILLI the amyloid nucleation score was “inactive”.
KWSLFLYRHGWCRLAGTLLV gave an amyloid nucleation score of -0.443 ± 1.
With VRTDYWVGYVIFYHIVSRGL the amyloid nucleation score was “inactive”.
In the case of SFKFMYNSFRSNGDIFSFNR, the amyloid nucleation score is reported as 2.35 ± 0.073.
In the case of VCVLMIFNIVRRGMYSSARV, the amyloid nucleation score is reported as “inactive”.
For GFRKWKLIVD, the amyloid nucleation score was “inactive”.
With RCLSNN the amyloid nucleation score was “inactive”.
With QFAKIPIALTSVYRIKDGLY the amyloid nucleation score was “inactive”.
LACSSSCILSPVVGIGFSWN showed an amyloid nucleation score of 1.89 ± 0.055.
For CCSKFHAQN, the amyloid nucleation score was “inactive”.
In the case of PDLIDVFGE, the amyloid nucleation score is reported as “inactive”.
For ISTFVLNDAMLRRWET, the amyloid nucleation score was “inactive”.
For GISYNSV, the amyloid nucleation score was “inactive”.
In the case of NDFSKGLCMWTFNWNDTYDQ, the amyloid nucleation score is reported as 1.75 ± 0.077.
With RNVWRCSLPYHFIF the amyloid nucleation score was “inactive”.
With AFKLYWKYCRYNPWVRNR the amyloid nucleation score was “inactive”.
Work on IWETVRIFCFINHAINCGVP yielded an amyloid nucleation score of 2.35 ± 0.079.
With KDVSPVCNVPMSGWWTTAFL the amyloid nucleation score was “inactive”.
For GSGVNWFNIVVVS, the amyloid nucleation score was “inactive”.
In the case of LWLGWNRKWQFSWPAAGRFL, the amyloid nucleation score is reported as “inactive”.
In the case of TAFTMGV, the amyloid nucleation score is reported as “inactive”.
For RWMLSDGFIMKRRTSFFNDM, the amyloid nucleation score was “inactive”.
TLSWLRPPPSRPLLFHEVSW gave an amyloid nucleation score of -0.246 ± 0.8.
TAKGVKSDLECGCNVFRTEC showed an amyloid nucleation score of 0.457 ± 0.15.
With HSRRHCFLVSWE the amyloid nucleation score was “inactive”.
For GTSICDVKFAPLYSE, the amyloid nucleation score was “inactive”.
For YFISWSFHGFVTSPGFWSGC, the amyloid nucleation score was 1.41 ± 0.15.
In the case of CADQWS, the amyloid nucleation score is reported as “inactive”.
For AGLPLV, the amyloid nucleation score was “inactive”.
With VSSMYVVIHGV the amyloid nucleation score was “inactive”.
For GLPNLASYSPPPINAKYIGD, the amyloid nucleation score was “inactive”.
In the case of DLKTWSMLSFFGMYATYLIK, the amyloid nucleation score is reported as “inactive”.
With HITGNGPHLRYCARQVLWSL the amyloid nucleation score was “inactive”.
With VCMLVMYESRLNVEKAVLLG the amyloid nucleation score was -0.083 ± 0.64.
With KYKAWMVCHTHWSTVKVKRL the amyloid nucleation score was “inactive”.
With HTMAHWITKEAAFLI the amyloid nucleation score was “inactive”.
With DWTWMMS the amyloid nucleation score was “inactive”.
With MVVLAVGRVKLAVYGCRKHG the amyloid nucleation score was “inactive”.
In the case of FSMSPSTTYRAFGHYSPGQH, the amyloid nucleation score is reported as -0.074 ± 0.5.
For KRVSTDAW, the amyloid nucleation score was “inactive”.
For YWDDSMKYDLKMVERSVGGK, the amyloid nucleation score was “inactive”.
With RRNMYLL the amyloid nucleation score was -1.31 ± 2.5.
With PGLRVNYFRGESLDVYIVEE the amyloid nucleation score was 2.14 ± 0.071.
In the case of CVFKTNVNGLMEEVLSGFKY, the amyloid nucleation score is reported as “inactive”.
For AVAHA, the amyloid nucleation score was “inactive”.
In the case of WSQEATTM, the amyloid nucleation score is reported as “inactive”.
In the case of SSALRMYVCSAWG, the amyloid nucleation score is reported as “inactive”.
FRFYLCDDFMCNVLHYQPRN gave an amyloid nucleation score of 3.19 ± 0.073.
In the case of YFNLITAYKVLSAHGRTLWR, the amyloid nucleation score is reported as “inactive”.
In the case of GFKDLWYCDGF, the amyloid nucleation score is reported as “inactive”.
In the case of RITPLDCLSNGRQ, the amyloid nucleation score is reported as “inactive”.
Substance VQRGSTALVFDVSTSIFMNI has an amyloid nucleation score of 1.57 ± 0.12.
With HVYMGSFVPR the amyloid nucleation score was “inactive”.
For NAGYSNRCQIGYICSVRACK, the amyloid nucleation score was “inactive”.
For LVDCFKLCRELNGLILNVAA, the amyloid nucleation score was 1.07 ± 0.12.
For DFARFIPFRPDFNFWGRLTG, the amyloid nucleation score was “inactive”.
With NRYGGSAQGHPMWVTTSREW the amyloid nucleation score was “inactive”.
With MRNLGGLCIALPEVVEGTDF the amyloid nucleation score was “inactive”.
In the case of TYRVLE, the amyloid nucleation score is reported as “inactive”.
For GVSEAMCVILFYFYWKWVFP, the amyloid nucleation score was “inactive”.
In the case of KGCNETWFVNPRGRYCWEFC, the amyloid nucleation score is reported as “inactive”.
Substance STLFSPR has an amyloid nucleation score of 0.922 ± 0.14.
For PRIQKSWVGAM, the amyloid nucleation score was “inactive”.
For SGNWTDRTVIPYHYYIDKLN, the amyloid nucleation score was “inactive”.
For IWTTPHVCPNLMMSARGCRL, the amyloid nucleation score was “inactive”.
In the case of YYGGVLVSHRKPSGVCYGYG, the amyloid nucleation score is reported as “inactive”.
For LGITNGRL, the amyloid nucleation score was “inactive”.
In the case of RITSDALG, the amyloid nucleation score is reported as “inactive”.
For AYFLKEVNYMVKIYNLECRV, the amyloid nucleation score was “inactive”.
KLMEICYRVRIRRMECQVNW gave an amyloid nucleation score of 0.753 ± 0.12.
With SCSDW the amyloid nucleation score was “inactive”.
Work on NGVFWGRKSRSYEFWSFYFQ yielded an amyloid nucleation score of -0.052 ± 0.62.
YNLSRHQRTSTSLRCKGQSF gave an amyloid nucleation score of 0.241 ± 0.44.
For LVVWRIRWRDKGSL, the amyloid nucleation score was “inactive”.
For LVYTVNLWNALIFHLD, the amyloid nucleation score was 0.527 ± 0.22.
For YAYVQRVYLACSINLMCLWY, the amyloid nucleation score was “inactive”.
In the case of NSSLY, the amyloid nucleation score is reported as “inactive”.
For VPCTWDLFYIGRSMWWFLTM, the amyloid nucleation score was “inactive”.
In the case of ISEVESWPFHCGYGNI, the amyloid nucleation score is reported as 0.467 ± 0.28.
With SIVSPIMRLFCFGLRAYKAV the amyloid nucleation score was “inactive”.
In the case of ELSANTSFTNSHMTMTTKLF, the amyloid nucleation score is reported as “inactive”.
For IYYFSLSMVLRCSEWTLYVY, the amyloid nucleation score was “inactive”.
With MMPNELFDPVRKDRSFVRWV the amyloid nucleation score was “inactive”.
Substance ASEFKTSWWNV has an amyloid nucleation score of -0.549 ± 0.68.
In the case of DSNGYKEGVDQNSGAKNTNK, the amyloid nucleation score is reported as “inactive”.
In the case of NISYKW, the amyloid nucleation score is reported as 0.377 ± 0.34.
For YRCFLNFIEMIDTCAGDLES, the amyloid nucleation score was “inactive”.
For SSRSRTRWASNFLAHAYGRF, the amyloid nucleation score was “inactive”.
For KEGDFPLSSSRYSYTNYLVI, the amyloid nucleation score was “inactive”.
For FPFKV, the amyloid nucleation score was “inactive”.
With SGIRDHLMRTKFDFVFKM the amyloid nucleation score was “inactive”.
With QFRFSFASYFMRSVSIGWIG the amyloid nucleation score was “inactive”.
In the case of CLFFKHLLLGDDVLLLTYLR, the amyloid nucleation score is reported as “inactive”.
HRLCSHYVFTGCPSNMRQCF showed an amyloid nucleation score of 0.083 ± 0.28.
For ENPVSCKAIYYTVSIITSFS, the amyloid nucleation score was “inactive”.
In the case of KYDSY, the amyloid nucleation score is reported as “inactive”.
Substance VSTSVDYFYGGPWTLVFGCL has an amyloid nucleation score of 2.6 ± 0.072.
For FGMSILVFFTVDRSLET, the amyloid nucleation score was “inactive”.
In the case of STIFTVAVFDCNEHLARSKS, the amyloid nucleation score is reported as “inactive”.
With SISTQCWSPYVAFHSWKTH the amyloid nucleation score was 0.416 ± 0.79.
For SNTYCVPYRKGEELVYCGSW, the amyloid nucleation score was “inactive”.
YVVVCSCAWS showed an amyloid nucleation score of 2.63 ± 0.074.
With KALSSDPTICFRRAFIVHCK the amyloid nucleation score was “inactive”.
Substance LGSIRSSKCKNLVICIGPMC has an amyloid nucleation score of 2.41 ± 0.051.
For RLIQTLWIFIKVRSRALVTH, the amyloid nucleation score was “inactive”.
With INQRLYEPFGRWVWTRYIAR the amyloid nucleation score was “inactive”.
In the case of ALFKTYHLKGMFGKNWVLVV, the amyloid nucleation score is reported as “inactive”.
For VKREWSAI, the amyloid nucleation score was “inactive”.
For DVLLARCYNCLSAFRLNSLC, the amyloid nucleation score was “inactive”.
In the case of AYKNRSFFLVVVITYNRVMP, the amyloid nucleation score is reported as “inactive”.
In the case of FYLIRKTIFLGSISLVWYGV, the amyloid nucleation score is reported as “inactive”.
In the case of SAVRGRCVLYGNRPLIHVRK, the amyloid nucleation score is reported as “inactive”.
Substance NMFPGSISLEWWGGTQLRWE has an amyloid nucleation score of 0.909 ± 0.23.
With YFFVHEKCQVGGRGGKLAKK the amyloid nucleation score was “inactive”.
In the case of KCSFTVNYRRRYSLYC, the amyloid nucleation score is reported as “inactive”.
For FSTVTYQGVTALVNQSSVTT, the amyloid nucleation score was “inactive”.
